Drawing on the supplement of paper PMC10567573, this text covers protein stability index for four proteins.

The data set in a line: protein stability index of a GFP-peptide fusion (GPS, HEK-293T) (PSI 1-6); higher = more stable. Conditions: c terminus: native.
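Also: lentivirally expressed fusion library, cells FACS-sorted into six equal-sized GFP/DsRed ratio bins, PSI computed from sequencing read fractions per bin weighted by bin number.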

For the protein CQPISFSGFGAEDDDLGGLGLGPR [POLD2 addR], for the setting “parent: NP_006221.1”, the protein stability index was found to be 4.36.

Take HSLRAVSTDPPHHDHHDEFCLMPR [BEX2 addR]: the protein stability index (parent: NP_116010.1) worked out at 4.61.

EQRNSRWNTVLRAVKAKTHHLEPR [TRPA1 addR]: under “parent: NP_015628.1”, the protein stability index was found to be 4.5.

As to LPALFTDLYSQEITAEEAREALPR [SNF8 addR], the protein stability index (parent: NP_009172.2) was found to be 3.55.
